Numbered stars: 1 amine (or outer) side, 2 acyl side, 3 side chain; on linkers, the order of the positions; unused ones are H or OH. Bridge positions count the residues as written; N and C are the ends. Square brackets hold non-standard residues; d marks the D form. Primed or numbered codes have the meaning given here. * marks the point of attachment. MB(4) = Monomer B (PyrS), N-Alloc pyrrolidine stapling residue, (S)-3-amino-1-(allyloxycarbonyl)pyrrolidine-3-carboxylic acid, C=CCOC(=O)N1CC[C@@](N[*:1])(C(=O)[*:2])C1; MC″ = Monomer C = PyrR, pyrrolidine stapling residue bearing Alloc (allyl carbamate on pyrrolidine N); R6″ = stapling residue, (R)-2-(5-hexenyl)alanine (drawn only), C=CCCCC[C@@](C)(N[*:1])C(=O)[*:2]; MB = Monomer B = PyrS, Alloc-pyrrolidine stapling residue (allyl carbamate on pyrrolidine N); MB(15) = Monomer B = PyrS (PS), pyrrolidine stapling residue (Alloc on ring N); MB(11) = Monomer B (PyrS), pyrrolidine-bearing Alloc-olefin stapling residue; ME = Monomer E = RgN, acyclic alkyl-N(Alloc) olefin stapling residue; R7 = (R)-2-(6-heptenyl)alanine, C=CCCCCC[C@@](C)(N[*:1])C(=O)[*:2]; R6 = (R)-2-(5-hexenyl)alanine, C=CCCCC[C@@](C)(N[*:1])C(=O)[*:2]; S6 = (S)-2-(5-hexenyl)alanine, C=CCCCC[C@](C)(N[*:1])C(=O)[*:2]; MB(5) = Monomer B (PyrS), N-Alloc pyrrolidine stapling residue; MB(14) = Monomer B = PyrS, Alloc-pyrrolidine stapling residue; MF = Monomer F (SdN), acyclic alkyl-N(Alloc) stapling residue; Biotin = O=C1N[C@H]2[C@H](CS[C@H]2CCCCC(=O)*)N1; Arg(Me2a) = CN(C)C(=N)NCCC[C@H](N)C(=O)O; Arg(Me2s) = CN=C(NC)NCCC[C@H](N)C(=O)O; 1Nal = N[C@@H](Cc1cccc2ccccc12)C(=O)O; PEG3′ = PEG3 linker, CAS# 557756-85-1; hArg = N=C(N)NCCCC[C@H](N)C(=O)O; R8 = C=CCCCCCC[C@@](C)(N)C(=O)O; S8 = C=CCCCCCC[C@](C)(N)C(=O)O; R5 = C=CCCC[C@@](C)(N)C(=O)O; S5 = C=CCCC[C@](C)(N)C(=O)O; Aib = CC(C)(N)C(=O)O
T1: full-length beta-catenin (UniProt P35222 2-781, limits assumed)
T1 construct: mature; also called full-length ß-Catenin; β-catenin
T1 sequence (looked up): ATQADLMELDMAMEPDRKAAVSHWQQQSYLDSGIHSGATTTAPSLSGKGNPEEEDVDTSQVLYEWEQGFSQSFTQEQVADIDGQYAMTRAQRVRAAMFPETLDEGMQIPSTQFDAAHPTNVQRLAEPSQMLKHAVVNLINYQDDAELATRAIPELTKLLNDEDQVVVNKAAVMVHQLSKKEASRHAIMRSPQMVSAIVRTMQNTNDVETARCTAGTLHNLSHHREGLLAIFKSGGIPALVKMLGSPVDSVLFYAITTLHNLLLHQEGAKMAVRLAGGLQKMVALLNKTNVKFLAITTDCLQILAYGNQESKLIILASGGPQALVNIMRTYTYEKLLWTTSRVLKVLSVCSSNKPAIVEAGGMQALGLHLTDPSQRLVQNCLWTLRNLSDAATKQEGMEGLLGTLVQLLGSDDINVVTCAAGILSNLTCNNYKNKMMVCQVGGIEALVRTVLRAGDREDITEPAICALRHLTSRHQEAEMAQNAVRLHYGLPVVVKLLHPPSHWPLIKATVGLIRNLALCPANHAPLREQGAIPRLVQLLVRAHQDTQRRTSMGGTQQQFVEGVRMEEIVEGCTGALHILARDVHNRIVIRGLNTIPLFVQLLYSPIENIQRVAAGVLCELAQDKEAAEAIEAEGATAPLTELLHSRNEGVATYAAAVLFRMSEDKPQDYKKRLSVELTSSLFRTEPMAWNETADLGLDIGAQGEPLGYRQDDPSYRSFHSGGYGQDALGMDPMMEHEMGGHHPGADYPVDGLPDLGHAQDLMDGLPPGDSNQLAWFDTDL

B1: FP0507a (peptide)
peptide: Ac-A[MI]ILDAHI[S6]RVW-NH2
modifications: staple 2-9; also: amino staple MI/S6 (-N(R')-, after CO2 extrusion from carbamate staple), olefin E/Z not given here
B2: FP0217rc (peptide)
peptide: AXILDAHIXRVW
modifications: Ac-A-R8-I-L-D-A-H-I-MB-R-V-W-NH2; carbamate staple R8/MB with the olefin reduced to -CH2-CH2-
notes: also called FPO217rc
B3: FP0006a (peptide)
peptide: Ac-PA[MC″]ILDAHV[S8]RVW-NH2
modifications: staple 3-10; also: amino staple: carbamate CO2 extruded after metathesis, staple: amino staple (-N(R')-, CO2 extruded from carbamate staple)
B4: FP0495c (peptide)
peptide: Ac-A[R7]ILDAHI[MD]RVW-NH2
modifications: staple 2-9; not fully specified; printed as Ac-A-R7-I-L-D-A-H-I-MD-R-V-W-NH2; also: carbamate staple R7/MD (-N(R')-C(O)-O-)
B5: FP0212s Isomer 2 (peptide)
peptide: PAXILDAHVXRVW
modifications: not fully specified; Ac-P-A-R5-I-L-D-A-H-V-S8-R-V-W-NH2; hydrocarbon staple R5/S8

These binders were tested against T1, full-length beta-catenin (assay: competition FP, grade of FP EC50 (+++: <=100 nM)).
Description: (§1) In some embodiments, a competition fluorescence polarization assay is used to assess binding of provided compounds to beta-catenin. In an exemplary procedure, solutions of provided compounds, e.g., provided stapled peptides, were prepared in a buffer (e.g., 50 mM Tris pH 8.0, 250 mM NaCl, 2% glycerol, 0.5 mM EDTA, 0.02% w/v sodium azide) using a 3-fold serial dilution from 5 µM. Probe solution (15 nM full-length ß-Catenin, 20 nM FITC labeled peptide in buffer) was prepared and incubated for a period of time, e.g., 5 minutes, and the a volume, e.g., 40 µL per well plated in suitable plate, e.g., a black polystyrene 384-well plate (Corning). Equal volume of the serial diluted peptide was added to the plate and incubated protected from light for 15 minutes prior to read. Reads were performed on a Spectramax M5 (Molecular Devices) in duplicate. Suitable probe was FITC-PEG1-PQ-S5-ILD-S5-HVRRVWR (SEQ ID NO: 1) (hydrocarbon staple formed by two S5 via olefin metathesis) and/or FITC-bA-PQ-S5-ILD-S5-HVRRVWR (SEQ ID NO: 3) (hydrocarbon staple formed by two S5 via olefin metathesis). […] Another peptide, FPO217c (Ac-AR_8ILDAHIM$B5$RVW (SEQ ID NO: 280), with N-terminal proline removed and valine replaced with isoleucine compared to FP0025c) was prepared.

| FP EC50 [nM] | Binder |
| --- | --- |
| ≤ 100 | B1 |
| ≤ 100 | AXILDAHIXRVW (not fully specified; Ac-A-MA-I-L-D-A-H-I-MB-R-V-W-NH2; carbamate staple MA/MB) [FP0617c] |
| ≤ 100 | Ac-A[MI]ILDAHI[S5]RVW-NH2 (staple 2-9; also: carbamate staple, olefin geometry not assigned) [FP0506c Isomer 2] |
| ≤ 100 | Ac-A[R8]ILDAHI[MB(14)]RVW-NH2 [FP0217u] |
| ≤ 100 | AXILDAHIXRVW (not fully specified; Ac-A-MI-I-L-D-A-H-I-MG-R-V-W-NH2; carbamate staple MI/MG) [FP0588c] |
| ≤ 100 | AXILDAHIXRVW (not fully specified; Ac-A-R8-I-L-D-A-H-I-S5-R-V-W-NH2; hydrocarbon staple R8/S5) [FP0217s Isomer 2] |
| ≤ 100 | Ac-A[R6″]ILDAHI[MH]RVW-NH2 (staple 2-9; not fully specified; printed as Ac-A-R6-I-L-D-A-H-I-MH-R-V-W-NH2) [FP0511c Isomer 1] |
| ≤ 100 | AXILDAHIXRVW (not fully specified; Ac-A-R5-I-L-D-A-H-I-MH-R-V-W-NH2; carbamate staple R5/MH) [FP0510c Isomer 1] |
| ≤ 100 | AXILDAHIXRVW (not fully specified; Ac-A-ME-I-L-D-A-H-I-MB-R-V-W-NH2; carbamate staple ME/MB) [FP0604c] |
| ≤ 100 | AXILDAHIXRVW (not fully specified; Ac-A-ME-I-L-D-A-H-I-MF-R-V-W-NH2; carbamate staple ME/MF) [FP0601c] |
| ≤ 100 | Ac-A[R8]ILDAHI[MB(4)][hArg]VW-NH2 (staple 2-9) [FP0634c] |
| ≤ 100 | Ac-A[R6]ILDAHI[MF]RVW-NH2 (staple 2-9; also: carbamate staple, isomer 1, olefin geometry not assigned, also called FP0502c (Peak 1)) [FP0502c Isomer 1] |
| ≤ 100 | Ac-PA[MC″]ILDAHV[S8]RVW-NH2 (staple 3-10) [FP0005c] |
| ≤ 100 | B2 |
| ≤ 100 | Ac-A[MF]ILDAHI[MB(5)]RVW-NH2 (staple 2-9) [FP0626c] |
| ≤ 100 | AXILDAHIXRVW (not fully specified; Ac-A-MI-I-L-D-A-H-I-MF-R-V-W-NH2; carbamate staple MI/MF) [FP0587c] |

| FP EC50 [nM] | Binder |
| --- | --- |
| ≤ 100 | AXILDAHIXRVW (not fully specified; Ac-A-MG-I-L-D-A-H-I-MC-R-V-W-NH2; carbamate staple MG/MC) [FP0598c] |
| ≤ 100 | Ac-A[R6″]ILDAHI[MH]RVW-NH2 (staple 2-9) [FP0511a] |
| ≤ 100 | B3 |
| ≤ 100 | Ac-A[R6″]ILDAHI[MH]RVW-NH2 (staple 2-9; not fully specified; printed as Ac-A-R6-I-L-D-A-H-I-MH-R-V-W-NH2) [FP0511c Isomer 2] |
| ≤ 100 | Ac-A[R8]ILD[Aib]HI[MB(15)]RVW-NH2 (staple 2-9) [FP0645c] |
| ≤ 100 | {Biotin-PEG3′}-A[R8]ILDAHI[MB]RVW-NH2 (staple 2-9) [FP0217c_btn] |
| ≤ 100 | AXILDAHIXRVW (not fully specified; Ac-A-MA-I-L-D-A-H-I-MC-R-V-W-NH2; carbamate staple MA/MC) [FP0616c] |
| ≤ 100 | AXILDAHIXRVW (not fully specified; Ac-A-R8-I-L-D-A-H-I-S5-R-V-W-NH2; hydrocarbon staple R8/S5) [FP0217s Isomer 1] |
| ≤ 100 | AXILDAHIXRVW (not fully specified; Ac-A-ME-I-L-D-A-H-I-S8-R-V-W-NH2; carbamate staple ME/S8) [FP0335c Isomer 2] |
| ≤ 100 | AXILDAHIXRVW (not fully specified; Ac-A-MA-I-L-D-A-H-I-MF-R-V-W-NH2; carbamate staple MA/MF) [FP0611c] |
| ≤ 100 | AXILDAHIXRVW (not fully specified; Ac-A-ME-I-L-D-A-H-I-MC-R-V-W-NH2; carbamate staple ME/MC) [FP0605c] |
| ≤ 100 | Ac-A[R8]ILDAHI[MB(4)][Arg(Me2a)]VW-NH2 (staple 2-9) [FP0639c] |
| ≤ 100 | Ac-[R8]ILDAHI[MB(14)]RVW-NH2 (staple 1-8) [FP0220c] |
| ≤ 100 | Ac-A[R5]ILDAHI[MH]RVW-NH2 (staple 2-9; not fully specified; printed as Ac-A-R5-I-L-D-A-H-I-MH-R-V-W-NH2) [FP0510c Isomer 2] |
| ≤ 100 | Ac-A[R8]ILDAHI[MB(4)][Arg(Me2s)]VW-NH2 (staple 2-9) [FP0640c] |

The binders below were run against T1, full-length beta-catenin (assay: competition FP, grade of FP EC50 (++: 100-500 nM)).
Description: as §1

| FP EC50 [nM] | Binder |
| --- | --- |
| 100 to 500 | B4 |
| 100 to 500 | AXILDAHIXRVW (not fully specified; Ac-A-R5-I-L-D-A-H-I-MF-R-V-W-NH2; carbamate staple R5/MF) [FP0501c] |
| 100 to 500 | Ac-A[ME]ILDAHI[S8]RVW-NH2 (staple 2-9) [FP0335a] |
| 100 to 500 | B5 |
| 100 to 500 | Ac-A[R8]ILNAHI[MB(14)]RVW-NH2 (staple 2-9) [FP0218c] |
| 100 to 500 | AXIADAHIXRVW (not fully specified; Ac-A-R8-I-A-D-A-H-I-MB-R-V-W-NH2; carbamate staple R8/MB) [FP0406c] |
| 100 to 500 | Ac-A[R8]ILDAHI[MB(4)]K(Me)VW-NH2 (staple 2-9) [FP0636c] |
| 100 to 500 | Ac-A[R8]ILDAHI[MB(4)]KVW-NH2 (staple 2-9) [FP0635c] |
| 100 to 500 | Ac-A[R8]ILDAHI[MB(11)][1Nal]VW-NH2 (staple 2-9; also: carbamate staple R8/MB (-N(R')-C(O)-O-), isomer not specified) [FP0365c] |
| 100 to 500 | Ac-A[R8]ILTAHI[MB(14)]RVW-NH2 (staple 2-9) [FP0219c] |
| 100 to 500 | AXILDAHIXAVW (not fully specified; Ac-A-R8-I-L-D-A-H-I-MB-A-V-W-NH2; carbamate staple R8/MB) [FP0410c] |
| 100 to 500 | AXILDAHIXRVW (not fully specified; Ac-A-ME-I-L-D-A-H-I-S8-R-V-W-NH2; carbamate staple ME/S8) [FP0335c Isomer 1] |

— patent US11198713B2, “Agents modulating beta-catenin functions and methods thereof” (FOG PHARMACEUTICALS, INC., priority 2017, dated 2021)
